Article PMC5770965, “pKID Binds to KIX via an Unstructured Transition State with Nonnative Interactions” (Biophysical Journal, 2017)
Non-standard residues stand in square brackets, D forms with d. No end group written: not given here. *: point of attachment. FITC = O=C1OC2(c3ccc(O)cc3Oc3cc(O)ccc32)c2ccc(NC(=S)*)cc21; pS = N[C@@H](COP(=O)(O)O)C(=O)O

Experiments:
[1] = biological target: KIX domain of CBP KIX domain (UniProt P45481); assay: fluorescence anisotropy and stopped-flow kinetics; settings: reference: unphosphorylated KID peptide (Ser133); sites S133
Sequence of KIX domain of CBP KIX domain (P45481 whole entry, looked up, the tested form may be a part): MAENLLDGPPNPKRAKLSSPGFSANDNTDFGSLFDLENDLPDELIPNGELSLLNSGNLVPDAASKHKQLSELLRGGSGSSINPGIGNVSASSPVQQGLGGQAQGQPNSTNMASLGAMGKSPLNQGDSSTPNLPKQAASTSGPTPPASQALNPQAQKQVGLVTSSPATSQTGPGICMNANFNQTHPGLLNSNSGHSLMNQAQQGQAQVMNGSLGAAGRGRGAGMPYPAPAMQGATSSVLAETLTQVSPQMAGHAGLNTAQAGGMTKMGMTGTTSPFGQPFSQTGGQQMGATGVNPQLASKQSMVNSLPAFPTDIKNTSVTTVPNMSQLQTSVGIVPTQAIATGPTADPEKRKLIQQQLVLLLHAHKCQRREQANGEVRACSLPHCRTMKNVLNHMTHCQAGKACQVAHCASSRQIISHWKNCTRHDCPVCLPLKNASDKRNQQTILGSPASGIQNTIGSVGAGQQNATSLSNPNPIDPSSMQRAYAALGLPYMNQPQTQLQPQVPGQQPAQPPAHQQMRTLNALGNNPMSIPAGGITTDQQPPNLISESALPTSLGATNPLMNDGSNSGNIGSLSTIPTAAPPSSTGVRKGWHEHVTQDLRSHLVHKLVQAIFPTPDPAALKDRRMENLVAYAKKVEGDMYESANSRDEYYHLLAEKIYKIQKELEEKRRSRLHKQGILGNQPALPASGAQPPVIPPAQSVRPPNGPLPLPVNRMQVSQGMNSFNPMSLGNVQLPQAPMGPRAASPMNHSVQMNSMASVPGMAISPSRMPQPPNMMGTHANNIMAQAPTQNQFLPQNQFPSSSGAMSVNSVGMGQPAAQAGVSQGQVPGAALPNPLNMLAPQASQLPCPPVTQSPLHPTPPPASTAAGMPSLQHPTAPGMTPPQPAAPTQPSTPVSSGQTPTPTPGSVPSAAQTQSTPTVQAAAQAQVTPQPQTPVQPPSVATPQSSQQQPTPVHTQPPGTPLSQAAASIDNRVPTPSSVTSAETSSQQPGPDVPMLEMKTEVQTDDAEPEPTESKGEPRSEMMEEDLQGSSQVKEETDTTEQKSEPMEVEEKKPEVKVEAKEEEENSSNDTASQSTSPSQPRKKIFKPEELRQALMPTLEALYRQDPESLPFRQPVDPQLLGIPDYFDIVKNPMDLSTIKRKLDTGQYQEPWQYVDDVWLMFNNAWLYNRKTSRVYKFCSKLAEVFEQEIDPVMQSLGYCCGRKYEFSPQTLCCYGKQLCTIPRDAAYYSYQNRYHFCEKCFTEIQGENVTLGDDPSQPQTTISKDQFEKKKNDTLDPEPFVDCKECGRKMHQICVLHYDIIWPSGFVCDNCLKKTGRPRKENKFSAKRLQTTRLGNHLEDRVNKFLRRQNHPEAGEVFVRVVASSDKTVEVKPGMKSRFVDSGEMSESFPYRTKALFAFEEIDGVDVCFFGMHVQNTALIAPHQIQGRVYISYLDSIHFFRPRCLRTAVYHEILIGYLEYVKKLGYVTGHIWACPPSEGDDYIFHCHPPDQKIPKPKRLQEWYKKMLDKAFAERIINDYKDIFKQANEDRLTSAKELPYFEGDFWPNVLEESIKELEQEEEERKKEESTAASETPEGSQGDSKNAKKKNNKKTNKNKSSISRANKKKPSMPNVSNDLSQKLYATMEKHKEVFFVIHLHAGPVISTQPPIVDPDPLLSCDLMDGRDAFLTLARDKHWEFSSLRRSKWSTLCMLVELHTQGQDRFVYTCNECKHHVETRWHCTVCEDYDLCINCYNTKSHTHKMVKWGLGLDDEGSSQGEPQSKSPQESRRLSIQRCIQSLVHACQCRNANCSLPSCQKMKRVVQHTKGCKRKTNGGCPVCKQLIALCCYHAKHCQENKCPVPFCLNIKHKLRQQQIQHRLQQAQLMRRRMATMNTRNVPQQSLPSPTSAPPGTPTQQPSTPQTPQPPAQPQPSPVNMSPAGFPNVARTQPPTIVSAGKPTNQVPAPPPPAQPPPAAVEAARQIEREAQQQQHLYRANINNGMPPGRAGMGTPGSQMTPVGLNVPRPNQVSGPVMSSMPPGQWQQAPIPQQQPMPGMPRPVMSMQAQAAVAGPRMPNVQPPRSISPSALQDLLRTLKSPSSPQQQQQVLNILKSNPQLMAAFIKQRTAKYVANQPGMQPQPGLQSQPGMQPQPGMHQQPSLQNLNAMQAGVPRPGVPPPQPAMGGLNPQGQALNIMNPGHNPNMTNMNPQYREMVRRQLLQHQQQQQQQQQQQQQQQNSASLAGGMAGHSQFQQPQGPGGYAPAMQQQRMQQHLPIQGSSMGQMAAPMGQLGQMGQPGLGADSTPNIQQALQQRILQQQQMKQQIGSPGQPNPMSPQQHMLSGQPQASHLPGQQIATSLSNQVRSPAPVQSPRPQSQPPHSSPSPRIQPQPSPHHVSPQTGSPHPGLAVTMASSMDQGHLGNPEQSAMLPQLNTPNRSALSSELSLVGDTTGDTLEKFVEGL

[2] = biological target: T1, KIX domain of CBP (UniProt P45481 586-666); assay: fluorescence polarisation; equilibrium fluorescence anisotropy of N-terminally FITC-labelled pKID peptides with KIX; buffer and conditions as in the accompanying article (ref. 42); settings: both partners purified
T1 construct: PDB 1KDX is the cited pKID/KIX structure and need not have the same limits
T1 sequence (P45481 586-666): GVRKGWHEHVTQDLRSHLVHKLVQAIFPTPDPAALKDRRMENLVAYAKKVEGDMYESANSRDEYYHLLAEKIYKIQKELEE

[3] = biological target: T2, KIX domain of CBP (UniProt P45481 586-665); assay: stopped-flow fluorescence (association kinetics) + dissociation kinetics by competition; KdKin calculated as kdiss/kass,fast; settings: both partners purified
T2 sequence (P45481 586-665): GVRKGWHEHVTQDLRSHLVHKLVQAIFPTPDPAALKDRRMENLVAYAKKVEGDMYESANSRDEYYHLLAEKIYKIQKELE

[4] = biological target: T2, KIX domain of CBP; assay: stopped-flow fluorescence (association kinetics); pseudo-first order conditions with KIX in excess over FITC-pKID; biphasic; kass,fast = gradient of the observed fast rate against KIX concentration; settings: both partners purified
[5] = biological target: T2, KIX domain of CBP; assay: dissociation kinetics by competition; FITC-pKID displaced from KIX by unlabeled competitor cMybTAD; kdiss = asymptote of the observed dissociation rate against competitor concentration; settings: both partners purified
[6] = biological target: T2, KIX domain of CBP; assay: fluorescence polarisation; equilibrium fluorescence anisotropy; KIX titrated into N-terminally FITC-labelled pKID peptide; biophysical buffer and conditions as in the accompanying article (ref. 42); KdEqub; settings: both partners purified
[7] = biological target: T2, KIX domain of CBP; assay: stopped-flow fluorescence (association kinetics); pseudo-first order conditions with KIX in excess over FITC-pKID; biphasic; kass,fast = gradient of the observed fast rate against KIX concentration; settings: both partners purified; remark: listed apart in the source
[8] = biological target: T2, KIX domain of CBP; assay: fluorescence polarisation; equilibrium fluorescence anisotropy; KIX titrated into N-terminally FITC-labelled pKID peptide; biophysical buffer and conditions as in the accompanying article (ref. 42); KdEqub; settings: both partners purified; remark: listed apart in the source
[9] = biological target: T2, KIX domain of CBP; assay: dissociation kinetics by competition; FITC-pKID displaced from KIX by unlabeled competitor cMybTAD; kdiss = asymptote of the observed dissociation rate against competitor concentration; settings: both partners purified; remark: listed apart in the source
[10] = biological target: T2, KIX domain of CBP; assay: stopped-flow fluorescence (association kinetics) + dissociation kinetics by competition; KdKin calculated as kdiss/kass,fast; settings: both partners purified; remark: listed apart in the source

Molecule | Kd [3] [nM] | kon [4] [M⁻¹ s⁻¹] | koff [5] [s⁻¹] | Kd [6] [nM] | kon [7] [M⁻¹ s⁻¹] | Kd [8] [nM] | koff [9] [s⁻¹] | Kd [10] [nM] | further results
CREB (KID / pKID region) 116-146 (from UniProt P15337-1) pSer133 pKID peptide |  |  |  |  |  |  |  |  | binding against the reference [1]: stronger
{FITC}-DSVTDSQKRREILSRRP[pS]YRKALNDLSSDAP (peptide, UniProt P15337-1 116-146, looked up, source: synthetic peptide, bought: Biomatik) [FITC-pKID I137A, listing 1 of 2 here] |  |  |  |  |  |  |  |  | fold increase of Kd against wild type [2]: ~100 fold
{FITC}-DSVTDSQKRREIASRRP[pS]YRKILNDLSSDAP (peptide, UniProt P15337-1 116-146, looked up, source: synthetic peptide, bought: Biomatik) [FITC-pKID L128A, listing 1 of 2 here] |  |  |  |  |  |  |  |  | fold increase of Kd against wild type [2]: > 10 fold
{FITC}-DSVTDSQKRREILSRRP[pS]YRKIANDLSSDAP (peptide, UniProt P15337-1 116-146, looked up, source: synthetic peptide, bought: Biomatik) [FITC-pKID L138A, listing 1 of 2 here] |  |  |  |  |  |  |  |  | fold increase of Kd against wild type [2]: > 10 fold
{FITC}-DSVTDSQKRREILSRRP[pS]ARKILNDLSSDAP (peptide, UniProt P15337-1 116-146, looked up, source: synthetic peptide, bought: Biomatik) [FITC-pKID Y134A, listing 1 of 2 here] |  |  |  |  |  |  |  |  | fold increase of Kd against wild type [2]: ~1000 fold
{FITC}-DSVTDSQKRREILSRRPSYRKILNDLSSDAP (peptide, UniProt P15337-1 116-146, looked up, 'pSer to Ser' in the text; also called ∆pS133; pS133S; source: synthetic peptide, bought: Biomatik) [FITC-KID, not phosphorylated at Ser133 (CREB residues 116-146)] | 7500 ± 1300 | 7.6e+06 | 56.7 | 28700 |  |  |  |  | 
{FITC}-DSVTDSQKRREILSRRP[pS]YRKILNDLSSDAP (peptide, UniProt P15337-1 116-146, looked up, also called wtFITCpKID; source: synthetic peptide, bought: Biomatik) [FITC-pKID wild-type (CREB residues 116-146, phosphorylated at Ser133)] | 110 ± 20 | 7.3e+06 | 0.81 | 110 |  |  |  |  | 
{FITC}-DSVTDSQKRRAILSRRP[pS]YRKILNDLSSDAP (peptide, UniProt P15337-1 116-146, looked up, source: synthetic peptide, bought: Biomatik) [FITC-pKID E126A] |  |  |  |  | 1.05e+07 | 170 | 0.97 | 90 ± 10 | 
{FITC}-DSVTDAQKRREILSRRP[pS]YRKILNDLSSDAP (peptide, UniProt P15337-1 116-146, looked up, source: synthetic peptide, bought: Biomatik) [FITC-pKID S121A] | 100 ± 20 | 6.9e+06 | 0.71 | 120 |  |  |  |  | 
{FITC}-DSVTDSQKRREILSRRP[pS]ARKILNDLSSDAP (peptide, UniProt P15337-1 116-146, looked up, source: synthetic peptide, bought: Biomatik) [FITC-pKID Y134A, listing 2 of 2 here] |  |  |  | 111000 |  |  |  |  | 
{FITC}-DSVTDSQKRRGILSRRP[pS]YRKILNDLSSDAP (peptide, UniProt P15337-1 116-146, looked up, also called A126G; source: synthetic peptide, bought: Biomatik) [FITC-pKID E126G] |  |  |  |  | 7.6e+06 | 250 | 2.09 | 280 ± 30 | 
{FITC}-DSVTDSQKRREILSRRP[pS]YRKIANDLSSDAP (peptide, UniProt P15337-1 116-146, looked up, source: synthetic peptide, bought: Biomatik) [FITC-pKID L138A, listing 2 of 2 here] | 4730 ± 1920 | 2.8e+06 | 13.2 | 6300 |  |  |  |  | 
{FITC}-DSVTDSQKRREILSRRP[pS]YRKILNDLSADAP (peptide, UniProt P15337-1 116-146, looked up, source: synthetic peptide, bought: Biomatik) [FITC-pKID S143A] |  |  |  |  | 9.7e+06 | 70 | 0.71 | 70 ± 10 | 
{FITC}-DSVTDSQKRREILSRRP[pS]YRKILNDLASDAP (peptide, UniProt P15337-1 116-146, looked up, source: synthetic peptide, bought: Biomatik) [FITC-pKID S142A] | 70 ± 10 | 1.13e+07 | 0.83 | 120 |  |  |  |  | 
{FITC}-DSVTDSQKRREILSRRP[pS]YRKALNDLSSDAP (peptide, UniProt P15337-1 116-146, looked up, source: synthetic peptide, bought: Biomatik) [FITC-pKID I137A, listing 2 of 2 here] | 9730 ± 1920 | 4.5e+06 | 43.9 | 21600 |  |  |  |  | 
{FITC}-DSVTDSQKRREILSRRA[pS]YRKILNDLSSDAP (peptide, UniProt P15337-1 116-146, looked up, source: synthetic peptide, bought: Biomatik) [FITC-pKID P132A] |  |  |  |  | 7.7e+06 | 70 | 0.99 | 130 ± 10 | 
{FITC}-DSVTDSQKRREILSRRP[pS]YRKILNDLSGDAP (peptide, UniProt P15337-1 116-146, looked up, the text prints S143G; also called A143G; source: synthetic peptide, bought: Biomatik) [FITC-pKID S143G] |  |  |  |  | 6.3e+06 | 90 | 1.2 | 190 ± 20 | 
{FITC}-DSVTDSQKRREILSRRP[pS]YRGILNDLSSDAP (peptide, UniProt P15337-1 116-146, looked up, also called A136G; source: synthetic peptide, bought: Biomatik) [FITC-pKID K136G] |  |  |  |  | 8.3e+06 | 2160 | 10.5 | 1270 ± 250 | 
{FITC}-DSVTDSQKRREILSRRG[pS]YRKILNDLSSDAP (peptide, UniProt P15337-1 116-146, looked up, also called A132G; source: synthetic peptide, bought: Biomatik) [FITC-pKID P132G] |  |  |  |  | 8.3e+06 | 440 | 3.22 | 390 ± 10 | 
{FITC}-DSVTDSQKRREILSRAP[pS]YRKILNDLSSDAP (peptide, UniProt P15337-1 116-146, looked up, source: synthetic peptide, bought: Biomatik) [FITC-pKID R131A] | 810 ± 140 | 9.5e+06 | 7.66 | 1230 |  |  |  |  | 
{FITC}-DSVTDSQKRREILSRRP[pS]YGKILNDLSSDAP (peptide, UniProt P15337-1 116-146, looked up, also called A135G; source: synthetic peptide, bought: Biomatik) [FITC-pKID R135G] |  |  |  |  | 8e+06 | 1160 | 10.1 | 1260 ± 70 | 
{FITC}-DSVTDSQKAREILSRRP[pS]YRKILNDLSSDAP (peptide, UniProt P15337-1 116-146, looked up, source: synthetic peptide, bought: Biomatik) [FITC-pKID R124A] | 60 ± 20 | 8.4e+06 | 0.51 | 60 |  |  |  |  | 
{FITC}-DSVTDSQKRAEILSRRP[pS]YRKILNDLSSDAP (peptide, UniProt P15337-1 116-146, looked up, source: synthetic peptide, bought: Biomatik) [FITC-pKID R125A] | 340 ± 30 | 6.3e+06 | 2.17 | 220 |  |  |  |  | 
{FITC}-DSVGDSQKRREILSRRP[pS]YRKILNDLSSDAP (peptide, UniProt P15337-1 116-146, looked up, the peptide has Gly in place of the natural Thr119; also called A119G; source: synthetic peptide, bought: Biomatik) [FITC-pKID T119G] |  |  |  |  | 7.1e+06 | 80 | 0.67 | 90 ± 10 | 
{FITC}-DSVADSQKRREILSRRP[pS]YRKILNDLSSDAP (peptide, UniProt P15337-1 116-146, looked up, source: synthetic peptide, bought: Biomatik) [FITC-pKID T119A] |  |  |  |  | 7.3e+06 | 150 | 0.88 | 120 ± 10 | 
{FITC}-DSVTDSQKRREILSRRP[pS]YRAILNDLSSDAP (peptide, UniProt P15337-1 116-146, looked up, source: synthetic peptide, bought: Biomatik) [FITC-pKID K136A] |  |  |  |  | 1.02e+07 | 100 | 0.94 | 90 ± 10 | 
{FITC}-DSVTDSQKRREILSRRP[pS]YRKILNALSSDAP (peptide, UniProt P15337-1 116-146, looked up, source: synthetic peptide, bought: Biomatik) [FITC-pKID D140A] | 390 ± 50 | 5.3e+06 | 2.06 | 260 |  |  |  |  | 
{FITC}-DSVTDSQKRREIASRRP[pS]YRKILNDLSSDAP (peptide, UniProt P15337-1 116-146, looked up, source: synthetic peptide, bought: Biomatik) [FITC-pKID L128A, listing 2 of 2 here] | 2000 ± 160 | 7.9e+06 | 15.7 | 2490 |  |  |  |  | 
{FITC}-DSVTDSQKRREILSRRP[pS]YAKILNDLSSDAP (peptide, UniProt P15337-1 116-146, looked up, source: synthetic peptide, bought: Biomatik) [FITC-pKID R135A] |  |  |  |  | 1.05e+07 | 100 | 2.5 | 240 ± 20 | 
